One assay has as its target T1, ZapD (purified), P36680.
T1 chain: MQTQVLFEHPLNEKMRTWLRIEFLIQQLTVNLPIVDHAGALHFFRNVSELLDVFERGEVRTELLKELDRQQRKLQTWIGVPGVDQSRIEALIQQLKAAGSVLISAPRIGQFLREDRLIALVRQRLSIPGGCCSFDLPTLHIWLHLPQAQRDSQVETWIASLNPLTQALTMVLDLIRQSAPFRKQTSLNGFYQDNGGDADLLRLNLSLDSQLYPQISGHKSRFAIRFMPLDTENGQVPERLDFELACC
Put plainly: co-sedimentation assay, SDS-PAGE quantification. Conditions: chain shown with the change, 50 mM K-MOPS pH 6.5, 50 mM KCl, 2.5 mM MgCl2, 1 mM GTP, 3 µM BSA, read off a plot.

The target of assay [1] is T2, FtsZ(NRNKRG) (purified), P0A9A6.
T2 chain: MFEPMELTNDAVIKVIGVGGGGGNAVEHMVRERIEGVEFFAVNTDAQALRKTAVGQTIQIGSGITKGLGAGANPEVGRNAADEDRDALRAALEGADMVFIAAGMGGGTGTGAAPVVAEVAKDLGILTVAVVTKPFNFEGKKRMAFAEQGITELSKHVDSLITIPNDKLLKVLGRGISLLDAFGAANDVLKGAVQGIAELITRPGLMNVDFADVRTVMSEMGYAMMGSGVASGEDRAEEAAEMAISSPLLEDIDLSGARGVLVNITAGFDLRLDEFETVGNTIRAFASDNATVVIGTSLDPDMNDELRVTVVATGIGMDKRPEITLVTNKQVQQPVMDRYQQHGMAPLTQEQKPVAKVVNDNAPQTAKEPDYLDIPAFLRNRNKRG
Kind of assay: sedimentation (co-pelleting) assay, SDS-PAGE quantification. The conditions noted are these: chain shown with the change, 50 mM K-MOPS pH 6.5, 50 mM KCl, 2.5 mM MgCl2, 1 mM GTP, 3 µM BSA, read off a plot.

B1: FtsZ (purified, WT), P0A9A6 CTV KQAD (380-383) replaced by NRNKRG (protein)
chain: MFEPMELTNDAVIKVIGVGGGGGNAVEHMVRERIEGVEFFAVNTDAQALRKTAVGQTIQIGSGITKGLGAGANPEVGRNAADEDRDALRAALEGADMVFIAAGMGGGTGTGAAPVVAEVAKDLGILTVAVVTKPFNFEGKKRMAFAEQGITELSKHVDSLITIPNDKLLKVLGRGISLLDAFGAANDVLKGAVQGIAELITRPGLMNVDFADVRTVMSEMGYAMMGSGVASGEDRAEEAAEMAISSPLLEDIDLSGARGVLVNITAGFDLRLDEFETVGNTIRAFASDNATVVIGTSLDPDMNDELRVTVVATGIGMDKRPEITLVTNKQVQQPVMDRYQQHGMAPLTQEQKPVAKVVNDNAPQTAKEPDYLDIPAFLRNRNKRG
Take B1: the response (% ZapD in pellet) was determined as 17 with ZapD (purified), P36680 (5 µM FtsZ with ZapD at 1:0.2, parent: est. 62) and 23 with ZapD (purified), P36680 (5 µM FtsZ with ZapD at 1:1, parent: est. 55). Also, the response (% FtsZ in pellet) turned out to be 34 in assay [1] (5 µM FtsZ with ZapD at 1:0.2, parent: est. 44); 36 in assay [1] (5 µM FtsZ with ZapD at 1:1, parent: est. 73); 31 in assay [1] (5 µM FtsZ, no ZapD, parent: est. 26).

(Values after paper PMC4835091.)
